In patent publication US20260308262 (published 2026) one finds Kd data, which are given here for one molecule.

As usually defined, the Kd is the free concentration of one partner at which half of the binding sites on the other are occupied at equilibrium, for simple one-to-one binding. Read a high Kd as lower affinity.

For this assay, the target named is CD161 (human). In words: other (literature value, Kamishikiryo et al 2011).
CD161 (human), sequence (chain, as listed by the source): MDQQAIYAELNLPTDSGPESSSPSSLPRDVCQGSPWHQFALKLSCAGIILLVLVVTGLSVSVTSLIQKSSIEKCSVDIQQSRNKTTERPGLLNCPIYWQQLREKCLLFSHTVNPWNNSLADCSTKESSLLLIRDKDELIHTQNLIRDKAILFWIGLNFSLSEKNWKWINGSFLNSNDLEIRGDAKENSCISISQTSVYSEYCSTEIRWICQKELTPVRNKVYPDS

B1: CLEC2D (protein)
chain: RANCHQEPSVCLQAACPESWIGFQRKCFYFSDDTKNWTSSQRFCDSQDADLAQVESFQELNFLLRYKGPSDHWIGLSREQGQPWKWINGTEWTRQFPILGAGECAYLNDKGASSARHYTERKWICSKSDIHV
In turn, B1 registered a dissociation constant Kd of 48 µM.
